Measurements: PMC11081419

Target: CCL18 (human) (UniProt P55774)
Test: SPR
Conditions: domain or fragment

Chain of EVA‐ACA1001(ΔN) (A0A023FFD0 29-136, stated change not applied): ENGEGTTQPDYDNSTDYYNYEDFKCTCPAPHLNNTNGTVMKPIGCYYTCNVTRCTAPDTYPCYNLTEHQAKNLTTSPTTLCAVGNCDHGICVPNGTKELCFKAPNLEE
Chain of CCL18 (human) (P55774 21-89): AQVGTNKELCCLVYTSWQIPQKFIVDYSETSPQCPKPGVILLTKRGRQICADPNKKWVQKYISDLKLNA

Substance: EVA‐ACA1001(ΔN) (from UniProt A0A023FFD0)
- Kd: < 0.1 nM
